The values that follow are results of earlier work, collected in paper PMC2752191.

Targets include Bak peptide (UniProt Q16611); Bax peptide (UniProt Q07812); Beclin1 peptide (UniProt Q14457).

Sequence of vBcl-2 (P89884 whole entry): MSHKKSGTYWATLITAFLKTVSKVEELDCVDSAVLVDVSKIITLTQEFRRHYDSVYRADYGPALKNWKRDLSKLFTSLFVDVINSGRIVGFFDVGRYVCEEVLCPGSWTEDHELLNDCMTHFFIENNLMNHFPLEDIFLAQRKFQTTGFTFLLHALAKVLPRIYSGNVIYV
Sequence of Beclin1 peptide (Q14457 107-130): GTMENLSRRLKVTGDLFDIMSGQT
Sequence of Bax peptide (Q07812 55-74): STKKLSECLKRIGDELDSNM

In general, Kd refers to the constant that tells how readily two partners part at equilibrium. Turning to vBcl-2 (from UniProt P89884), the Kd is 0.076 µM with Bak peptide, 0.69 µM with Bax peptide and 0.04 µM with Beclin1 peptide.
